Among the data in article PMC516023 (2004) are percent of parent values, retold here.

The labels stand for the following.
B1: HIV-1 Vpr, wild type [HIV-1] / GST-fused di-W peptide WWSFKSV (GST-B4) (parent complex)
chain 1: MEQAPEDQGPQREPHNEWTLELLEELKNEAVRHFPRIWLHGLGQHIYETYGDTWAGVEAIIRILQQLLFIHFRIGCRHSRIGVTRQRRARNGASRS
chain 2: WWSFKSV

In the test the parent is B1. In words: GST pull-down, autoradiography scanning; parent: 100; read off a plot.
In the case of chain 1 A30F, the percent of parent is about 6%. To chain 1 R80A belongs about 88%; to chain 1 E21K, about 7%; to chain 1 F34I, about 80%.

On to chain 1 R87A, chain 1 R88A, for which the percent of parent was about 71%.

Turning to chain 1 I63K, the percent of parent was about 80%.

As to chain 1 R62P, the percent of parent is about 4%. To chain 1 L23F belongs about 10%; to chain 1 E25K, about 86%.
